{"source": "patent EP3177737B1", "about": "(Arizona Board of Regents on behalf of the University of …, dated 2020)", "binders": {"B1": {"name": "Peptide 7: Ac-Nle-c[Asp-His-nal-Arg-(NMe)Trp-(NMe)Lys]-NH2 (peptide)", "peptide": "LDHXRWK", "modifications": "N-terminal acetyl; Nle at 4; D-Nal(2') (nal) at 7; Asp5-Lys10 side-chain lactam ring; C-terminal amide; backbone N-methyl on Trp9 and Lys10 (alpha-MSH numbering 4-10)"}, "B2": {"name": "Peptide 15: Ac-Nle-c[Asp-(NMe)His-nal-(NMe)Arg-Trp-Lys]-NH2 (peptide)", "peptide": "LDHXRWK", "modifications": "N-terminal acetyl; Nle at 4; D-Nal(2') (nal) at 7; Asp5-Lys10 side-chain lactam ring; C-terminal amide; backbone N-methyl on His6 and Arg8 (alpha-MSH numbering 4-10)"}, "B3": {"name": "Peptide 19: Ac-Nle-c[Asp-(NMe)His-nal-Arg-(NMe)Trp-(NMe)Lys]-NH2 (peptide)", "peptide": "LDHXRWK", "modifications": "N-terminal acetyl; Nle at 4; D-Nal(2') (nal) at 7; Asp5-Lys10 side-chain lactam ring; C-terminal amide; backbone N-methyl on His6, Trp9 and Lys10 (alpha-MSH numbering 4-10)"}, "B4": {"name": "Peptide 3: Ac-Nle-c[Asp-His-nal-Arg-(NMe)Trp-Lys]-NH2 (peptide)", "peptide": "LDHXRWK", "modifications": "N-terminal acetyl; Nle at 4; D-Nal(2') (nal) at 7; Asp5-Lys10 side-chain lactam ring; C-terminal amide; backbone N-methyl on Trp9 (alpha-MSH numbering 4-10)"}, "B5": {"name": "Peptide 14: Ac-Nle-c[Asp-His-(NMe)nal-(NMe)Arg-Trp-Lys]-NH2 (peptide)", "peptide": "LDHXRWK", "modifications": "N-terminal acetyl; Nle at 4; D-Nal(2') (nal) at 7; Asp5-Lys10 side-chain lactam ring; C-terminal amide; backbone N-methyl on nal7 and Arg8 (alpha-MSH numbering 4-10)"}, "B6": {"name": "Peptide 28: Ac-Nle-c[Asp-(NMe)His-nal-(NMe)Arg-(NMe)Trp-(NMe)Lys]-NH2 (peptide)", "peptide": "LDHXRWK", "modifications": "N-terminal acetyl; Nle at 4; D-Nal(2') (nal) at 7; Asp5-Lys10 side-chain lactam ring; C-terminal amide; backbone N-methyl on His6, Arg8, Trp9 and Lys10 (alpha-MSH numbering 4-10)"}, "B7": {"name": "Peptide 16: Ac-Nle-c[Asp-(NMe)His-(NMe)nal-Arg-Trp-Lys]-NH2 (peptide)", "peptide": "LDHXRWK", "modifications": "N-terminal acetyl; Nle at 4; D-Nal(2') (nal) at 7; Asp5-Lys10 side-chain lactam ring; C-terminal amide; backbone N-methyl on His6 and nal7 (alpha-MSH numbering 4-10)"}, "B8": {"name": "Peptide 8: Ac-Nle-c[Asp-His-nal-(NMe)Arg-Trp-(NMe)Lys]-NH2 (peptide)", "peptide": "LDHXRWK", "modifications": "N-terminal acetyl; Nle at 4; D-Nal(2') (nal) at 7; Asp5-Lys10 side-chain lactam ring; C-terminal amide; backbone N-methyl on Arg8 and Lys10 (alpha-MSH numbering 4-10)"}, "B9": {"name": "Peptide 2: Ac-Nle-c[Asp-His-nal-Arg-Trp-(NMe)Lys]-NH2 (peptide)", "peptide": "LDHXRWK", "modifications": "N-terminal acetyl; Nle at 4; D-Nal(2') (nal) at 7; Asp5-Lys10 side-chain lactam ring; C-terminal amide; backbone N-methyl on Lys10 (alpha-MSH numbering 4-10)"}, "B10": {"name": "Peptide 10: Ac-Nle-c[Asp-(NMe)His-nal-Arg-Trp-(NMe)Lys]-NH2 (peptide)", "peptide": "LDHXRWK", "modifications": "N-terminal acetyl; Nle at 4; D-Nal(2') (nal) at 7; Asp5-Lys10 side-chain lactam ring; C-terminal amide; backbone N-methyl on His6 and Lys10 (alpha-MSH numbering 4-10)"}, "B11": {"name": "Peptide 11: Ac-Nle-c[Asp-His-nal-(NMe)Arg-(NMe)Trp-Lys]-NH2 (peptide)", "peptide": "LDHXRWK", "modifications": "N-terminal acetyl; Nle at 4; D-Nal(2') (nal) at 7; Asp5-Lys10 side-chain lactam ring; C-terminal amide; backbone N-methyl on Arg8 and Trp9 (alpha-MSH numbering 4-10)"}, "B12": {"name": "Peptide 6: Ac-Nle-c[Asp-(NMe)His-nal-Arg-Trp-Lys]-NH2 (peptide)", "peptide": "LDHXRWK", "modifications": "N-terminal acetyl; Nle at 4; D-Nal(2') (nal) at 7; Asp5-Lys10 side-chain lactam ring; C-terminal amide; backbone N-methyl on His6 (alpha-MSH numbering 4-10)"}, "B13": {"name": "Peptide 4: Ac-Nle-c[Asp-His-nal-(NMe)Arg-Trp-Lys]-NH2 (peptide)", "peptide": "LDHXRWK", "modifications": "N-terminal acetyl; Nle at 4; D-Nal(2') (nal) at 7; Asp5-Lys10 side-chain lactam ring; C-terminal amide; backbone N-methyl on Arg8 (alpha-MSH numbering 4-10)"}, "B14": {"name": "Peptide 32 (penta-N-methylated compound 32): Ac-Nle-c[Asp-(NMe)His-(NMe)nal-(NMe)Arg-(NMe)Trp-(NMe)Lys]-NH2 (peptide)", "peptide": "LDHXRWK", "modifications": "N-terminal acetyl; Nle at 4; D-Nal(2') (nal) at 7; Asp5-Lys10 side-chain lactam ring; C-terminal amide; backbone N-methyl on His6, nal7, Arg8, Trp9 and Lys10 (alpha-MSH numbering 4-10)", "notes": "NO; 32; No. 32 to the hMC1R antagonist"}}}
{"molecular_target": "T1, human melanocortin 5 receptor (human, UniProt P33032 1-325)", "T1 construct": "whole, on cells; also called hMC5R; hMC5 receptor", "T1 sequence (P33032 whole entry)": "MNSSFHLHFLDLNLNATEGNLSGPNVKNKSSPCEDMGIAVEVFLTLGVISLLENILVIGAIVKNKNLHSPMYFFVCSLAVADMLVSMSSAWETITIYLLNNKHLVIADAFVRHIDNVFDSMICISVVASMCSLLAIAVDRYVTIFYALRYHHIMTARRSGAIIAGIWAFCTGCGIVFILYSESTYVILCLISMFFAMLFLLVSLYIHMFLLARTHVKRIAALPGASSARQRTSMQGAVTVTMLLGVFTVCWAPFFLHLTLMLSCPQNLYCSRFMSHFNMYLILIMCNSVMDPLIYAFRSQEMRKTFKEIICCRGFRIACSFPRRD", "assay": "competition with [125I]-NDP-alpha-MSH on whole HEK293 cells expressing the receptor"}
{"binder": "B1", "binding result": "binds"}
{"binder": "B2", "binding result": "binds"}
{"binder": "B3", "binding result": "binds"}
{"binder": "B4", "binding result": "binds"}
{"binder": "B5", "binding result": "binds"}
{"binder": "B6", "binding result": "binds"}
{"binder": "B7", "binding result": "binds"}
{"binder": "B8", "binding result": "binds"}
{"binder": "B9", "binding result": "binds"}
{"binder": "B10", "binding result": "binds"}
{"binder": "B11", "binding result": "binds"}
{"binder": "B12", "binding result": "binds"}
{"binder": "B13", "binding result": "binds"}
{"molecular_target": "T2, human melanocortin 1 receptor (human, UniProt Q01726 1-317)", "T2 construct": "whole, on cells; also called hMC1R; hMC1 receptor", "T2 sequence (Q01726 whole entry)": "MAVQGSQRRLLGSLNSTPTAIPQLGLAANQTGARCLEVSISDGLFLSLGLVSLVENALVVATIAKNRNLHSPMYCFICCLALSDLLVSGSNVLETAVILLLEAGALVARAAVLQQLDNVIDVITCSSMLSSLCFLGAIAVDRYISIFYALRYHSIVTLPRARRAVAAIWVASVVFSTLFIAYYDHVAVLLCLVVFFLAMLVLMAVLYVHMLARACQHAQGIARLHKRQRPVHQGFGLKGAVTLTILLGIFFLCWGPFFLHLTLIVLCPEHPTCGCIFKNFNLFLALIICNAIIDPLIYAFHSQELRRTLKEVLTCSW", "assay": "competition with [125I]-NDP-alpha-MSH on whole HEK293 cells expressing the receptor", "units": {"IC50": "nM"}}
{"binder": "B14", "IC50": 68}
{"molecular_target": "T2, human melanocortin 1 receptor", "assay": "competition with [125I]-NDP-alpha-MSH on A375 human melanoma cells", "units": {"IC50": "nM"}}
{"binder": "B2", "IC50": 14.8}
{"molecular_target": "T3, human melanocortin 3 receptor (human, UniProt P41968 1-323)", "T3 construct": "whole, on cells; also called hMC3R; hMC3 receptor", "T3 sequence (P41968 whole entry)": "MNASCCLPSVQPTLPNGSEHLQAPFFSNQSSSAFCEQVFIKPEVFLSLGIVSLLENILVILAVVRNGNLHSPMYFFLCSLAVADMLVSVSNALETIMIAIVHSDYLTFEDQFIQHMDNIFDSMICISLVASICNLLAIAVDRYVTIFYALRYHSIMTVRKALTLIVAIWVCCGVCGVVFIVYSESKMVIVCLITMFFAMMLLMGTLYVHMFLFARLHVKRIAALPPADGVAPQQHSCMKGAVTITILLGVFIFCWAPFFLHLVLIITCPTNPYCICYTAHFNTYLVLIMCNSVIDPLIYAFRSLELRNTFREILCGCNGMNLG", "assay": "assay not given; taken as the competition binding assay on HEK293 cells", "units": {"binding affinity": "nM"}}
{"binder": "B2", "binding affinity": 15}
